From the supplement of paper PMC9112550, “Optimization of the antimicrobial peptide Bac7 by deep mutational scanning” (BMC Biology, 2022)

tested on: Escherichia coli TOP10; experiment: shrunken log2 fold change of peptide-encoding DNA abundance (4.5 h post-induction vs induction); higher = less antimicrobial activity (less host growth inhibition); conditions: time post-induction: 4.5 h; library: site-saturation at positions 5, 18, 19, 20
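Note: peptides expressed intracellularly from a pBAD plasmid library in pooled LB shake-flask culture, induced with 0.3% L-arabinose, DNA abundance read by NGS, three biological replicates, DESeq2 with apeglm shrinkage.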

Sequence | shrunken log2 fold change
RRIRRRPPRLPRPRPRPPEAPRP | 0.493
RRIRSRPPRLPRPRPRPCRAPRP | -0.0808
RRIRWRPPRLPRPRPRPTTGPRP | 0.384
RRIRWRPPRLPRPRPRPMVDPRP | -0.0461
RRIRIRPPRLPRPRPRPVHSPRP | -0.0158
RRIRRRPPRLPRPRPRPNSLPRP | -0.652
RRIRDRPPRLPRPRPRPRLNPRP | -0.0317
RRIRERPPRLPRPRPRPMGCPRP | 0.111
RRIRRRPPRLPRPRPRPCLRPRP | -0.0202
RRIRPRPPRLPRPRPRPCYQPRP | -0.565
RRIRKRPPRLPRPRPRPGKLPRP | -0.208
RRIRKRPPRLPRPRPRPRMNPRP | 0.115
RRIRRRPPRLPRPRPRPPAVPRP | 0.606
RRIRDRPPRLPRPRPRPPNWPRP | 0.28
RRIRARPPRLPRPRPRPVSHPRP | 0.101
RRIRHRPPRLPRPRPRPSQFPRP | -0.247
RRIRMRPPRLPRPRPRPKICPRP | -0.155
RRIRFRPPRLPRPRPRPEKLPRP | -0.0722
RRIRIRPPRLPRPRPRPPEEPRP | 0.0652
RRIRVRPPRLPRPRPRPDAAPRP | 0.976
RRIRNRPPRLPRPRPRPDHYPRP | -0.202
RRIRDRPPRLPRPRPRPAADPRP | 0.701

Sequence | shrunken log2 fold change
RRIRMRPPRLPRPRPRPYEVPRP | -0.00992
RRIRDRPPRLPRPRPRPRPSPRP | 0.329
RRIRIRPPRLPRPRPRPTRGPRP | 0.0292
RRIRCRPPRLPRPRPRPDLLPRP | -0.393
RRIRQRPPRLPRPRPRPLEMPRP | 0.155
RRIRTRPPRLPRPRPRPVYLPRP | -1.16
RRIRDRPPRLPRPRPRPYNEPRP | -0.0252
RRIRPRPPRLPRPRPRPATYPRP | -0.46
RRIRHRPPRLPRPRPRPWETPRP | -0.141
RRIRNRPPRLPRPRPRPVFCPRP | 0.36
RRIRYRPPRLPRPRPRPDNEPRP | -0.258
RRIRERPPRLPRPRPRPVIIPRP | -0.634
RRIRNRPPRLPRPRPRPWPNPRP | -0.063
RRIRPRPPRLPRPRPRPDCLPRP | 0.0136
RRIRERPPRLPRPRPRPVLGPRP | -0.101
RRIRCRPPRLPRPRPRPNQMPRP | -0.447
RRIRPRPPRLPRPRPRPPINPRP | -0.158
RRIRKRPPRLPRPRPRPYDYPRP | -0.0386
RRIRVRPPRLPRPRPRPWNFPRP | -0.102
RRIRNRPPRLPRPRPRPYICPRP | -0.0343
RRIRRRPPRLPRPRPRPRQMPRP | 0.313
RRIRPRPPRLPRPRPRPKEKPRP | 0.264

Sequence | shrunken log2 fold change
RRIRLRPPRLPRPRPRPFWIPRP | -0.283
RRIRQRPPRLPRPRPRPMEIPRP | -0.0109
RRIRYRPPRLPRPRPRPVFAPRP | 0.0473
RRIRARPPRLPRPRPRPMQRPRP | 0.383
RRIRHRPPRLPRPRPRPMDEPRP | -0.204
RRIRERPPRLPRPRPRPTKKPRP | 0.0853
RRIRCRPPRLPRPRPRPTKRPRP | 0.0767
RRIRNRPPRLPRPRPRPQDSPRP | -0.238
RRIRDRPPRLPRPRPRPDKHPRP | -0.0761
RRIRYRPPRLPRPRPRPFSSPRP | 0.015
RRIRARPPRLPRPRPRPNKTPRP | -0.105
RRIRHRPPRLPRPRPRPPEDPRP | 0.314
RRIRWRPPRLPRPRPRPVWTPRP | 0.162
RRIRDRPPRLPRPRPRPKNAPRP | -0.0796
RRIRFRPPRLPRPRPRPVHTPRP | -0.0075
RRIRERPPRLPRPRPRPFQEPRP | -0.0402
RRIRMRPPRLPRPRPRPGCSPRP | 0.815
RRIRCRPPRLPRPRPRPIYNPRP | -0.761
RRIRNRPPRLPRPRPRPNGRPRP | -0.00776
RRIRNRPPRLPRPRPRPWFIPRP | -0.306
RRIRKRPPRLPRPRPRPWSTPRP | 0.0277
RRIRWRPPRLPRPRPRPKAQPRP | 0.0185

Sequence | shrunken log2 fold change
RRIRIRPPRLPRPRPRPVLPPRP | -0.242
RRIRIRPPRLPRPRPRPWLAPRP | -0.12
RRIRFRPPRLPRPRPRPRRTPRP | 0.375
RRIRWRPPRLPRPRPRPMPTPRP | 0.721
RRIRKRPPRLPRPRPRPMDGPRP | 0.231
RRIRLRPPRLPRPRPRPGHRPRP | -0.114
RRIRWRPPRLPRPRPRPRIYPRP | 0.068
RRIRCRPPRLPRPRPRPGKTPRP | 0.102
RRIRLRPPRLPRPRPRPLEGPRP | 0.765
RRIRIRPPRLPRPRPRPNADPRP | -0.322
RRIRYRPPRLPRPRPRPQDCPRP | -0.363
RRIRRRPPRLPRPRPRPYTEPRP | -0.452
RRIRMRPPRLPRPRPRPWRQPRP | 0.331
RRIRGRPPRLPRPRPRPQVFPRP | 0.0336
RRIRIRPPRLPRPRPRPNCPPRP | -0.231
RRIRCRPPRLPRPRPRPCPIPRP | -0.52
RRIRIRPPRLPRPRPRPAGSPRP | -0.0214
RRIRLRPPRLPRPRPRPQEQPRP | -0.00233
RRIRSRPPRLPRPRPRPCYYPRP | -0.571
RRIRPRPPRLPRPRPRPANYPRP | 0.0679
RRIRTRPPRLPRPRPRPPIVPRP | -0.175
RRIRIRPPRLPRPRPRPCTAPRP | -0.285

Sequence | shrunken log2 fold change
RRIRLRPPRLPRPRPRPVICPRP | -0.16
RRIRYRPPRLPRPRPRPISNPRP | -0.191
RRIRKRPPRLPRPRPRPYDMPRP | -0.0843
RRIRHRPPRLPRPRPRPKICPRP | 0.0596
RRIRYRPPRLPRPRPRPRNTPRP | -0.503
RRIRRRPPRLPRPRPRPTGKPRP | 0.901
RRIRTRPPRLPRPRPRPAMVPRP | -0.208
RRIRSRPPRLPRPRPRPVHGPRP | -0.215
RRIRIRPPRLPRPRPRPRLGPRP | 0.0473
RRIRCRPPRLPRPRPRPCTFPRP | -0.856
RRIRMRPPRLPRPRPRPLPCPRP | 0.372
RRIRGRPPRLPRPRPRPDNLPRP | -0.226
RRIRRRPPRLPRPRPRPAPLPRP | 0.857
RRIRGRPPRLPRPRPRPTSEPRP | 0.339
RRIRHRPPRLPRPRPRPHVFPRP | -0.0684
RRIRERPPRLPRPRPRPYTPPRP | -1
RRIRWRPPRLPRPRPRPKTKPRP | 0.101
RRIRRRPPRLPRPRPRPWKFPRP | -0.0344
RRIRTRPPRLPRPRPRPEWLPRP | 0.203
RRIRGRPPRLPRPRPRPSACPRP | 1.5
RRIRDRPPRLPRPRPRPTLQPRP | 0.981
